Numbering of substitutions follows the chain as printed. In names and notes the source's numbering stands.

As a reminder, the Kd is a measure of binding affinity in units of concentration. For orientation: koff means a measure of how fast the partners let go of each other. Read a low koff as a long-lived complex. For orientation: kon means the second-order rate constant of association. Lower therefore signals slower complex formation.

Assay [1] concerns the target human neonatal Fc receptor (FcRn), non-covalent complex with beta-2-microglobulin (human) (UniProt P55899). Description: FcRn affinity column (Example 2), Fc-region after IdeS cleavage.
For assay [2] the target is unchanged. Description: FcRn affinity column, run of the Bevacizumab comparison.
In assay [3] the target is T1, human IL-12 (human, UniProt P29459 23-219; P29460 23-328).
T1 construct: also called interleukin 12
T1 sequence (looked up) 1: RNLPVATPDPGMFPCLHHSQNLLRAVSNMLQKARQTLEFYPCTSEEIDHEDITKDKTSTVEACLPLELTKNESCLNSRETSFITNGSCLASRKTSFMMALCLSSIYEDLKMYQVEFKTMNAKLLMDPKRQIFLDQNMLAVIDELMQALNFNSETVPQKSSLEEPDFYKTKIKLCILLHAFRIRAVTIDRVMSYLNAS
T1 sequence (looked up) 2: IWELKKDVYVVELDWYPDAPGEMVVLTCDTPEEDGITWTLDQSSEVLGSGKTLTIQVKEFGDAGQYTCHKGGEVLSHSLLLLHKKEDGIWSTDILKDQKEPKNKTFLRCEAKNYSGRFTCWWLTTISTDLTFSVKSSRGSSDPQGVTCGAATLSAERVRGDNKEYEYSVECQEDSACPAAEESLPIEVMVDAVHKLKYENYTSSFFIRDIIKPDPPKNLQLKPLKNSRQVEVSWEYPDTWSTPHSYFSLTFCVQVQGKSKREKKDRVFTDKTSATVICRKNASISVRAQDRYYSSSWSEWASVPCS
Description: SPR, IL-12.

Assay [4] concerns the target human neonatal Fc receptor (FcRn), non-covalent complex with beta-2-microglobulin (human) (UniProt P55899). Description: SPR, FcRn, buffer pH 6.0. For orientation: In SPR one partner is held on a chip, and binding of the other changes the refractive index at the surface.
Assay [5] has the same target. Briefly: SPR, FcRn, buffer pH 6.4.
Assay [6] shares this target. Briefly: SPR, FcRn, buffer pH 6.6.
Assay [7] has the same target. Briefly: FcRn affinity column (Example 2).
Assay [8] shares this target. Briefly: SPR, huFcRn immobilised, pH 6.0, steady state affinity normalised to Ustekinumab.
Assay [9] deals with T1, human IL-12. Briefly: IL-12 ELISA, concentration calculated from the fit of the Briakinumab calibration curve.
Assay [10] has as its target human neonatal Fc receptor (FcRn), non-covalent complex with beta-2-microglobulin (human) (UniProt P55899). Briefly: SPR, huFcRn immobilised, pH 6.0, steady state affinity normalised to Ustekinumab; SPR steady state, pH 6.0; the reference, set to 1.
The target is the same in assay [11]. Description: FcRn affinity chromatography, pH gradient (Example 2), pH measured offline; FcRn affinity column, Example 2; elution pH at 84.3 min.
Assay [12] shares this target. Description: FcRn affinity column, Example 3 method, elution buffer 20 mM Tris/HCl, 400 mM NaCl, pH 8.8; FcRn affinity column, Example 3, high salt 400 mM NaCl.
Assay [13] shares this target. Description: FcRn affinity chromatography, pH gradient 5.5-8.8, 140 mM NaCl (Example 2); FcRn affinity column, Example 2, 140 mM NaCl, pH gradient; complete antibody.
For assay [14] the target is unchanged. Briefly: FcRn affinity chromatography, pH gradient 5.5-8.8, 140 mM NaCl (Example 2).
The target of assay [15] is T1, human IL-12. Description: IL-12 ELISA, absorbance against antibody concentration. A general note: An ELISA detects its analyte on a solid surface through an enzyme-linked reagent.
Assay [16] deals with human neonatal Fc receptor (FcRn), non-covalent complex with beta-2-microglobulin (human) (UniProt P55899). Description: FcRn affinity chromatography, pH gradient (Example 2), pH measured offline.
Chain of human neonatal Fc receptor (FcRn), non-covalent complex with beta-2-microglobulin (human) (P55899 other isoform, or with tags, fused parts or gaps limits assumed, chain 1 of 2): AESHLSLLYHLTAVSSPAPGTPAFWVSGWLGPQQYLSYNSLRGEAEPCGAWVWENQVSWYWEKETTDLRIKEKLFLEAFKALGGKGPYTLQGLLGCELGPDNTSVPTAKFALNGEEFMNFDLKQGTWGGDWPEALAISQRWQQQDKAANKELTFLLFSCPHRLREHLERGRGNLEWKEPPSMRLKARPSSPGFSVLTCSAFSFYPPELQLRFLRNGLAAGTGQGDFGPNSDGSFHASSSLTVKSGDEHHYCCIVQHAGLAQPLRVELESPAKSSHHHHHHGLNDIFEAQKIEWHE
Chain of human neonatal Fc receptor (FcRn), non-covalent complex with beta-2-microglobulin (human) (b2m, as listed by the source limits assumed, chain 2 of 2): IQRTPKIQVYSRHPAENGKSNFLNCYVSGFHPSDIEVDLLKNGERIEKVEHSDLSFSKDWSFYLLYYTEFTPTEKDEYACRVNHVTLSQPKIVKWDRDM
Assay [17] has the same target. Description: SPR, FcRn, buffer pH 6.8.
Assay [18] has the same target. Description: SPR, FcRn, buffer pH 7.0.
For assay [19] the target is unchanged. Briefly: FcRn affinity chromatography, pH gradient (Example 2), pH measured offline; FcRn affinity column, Example 2; elution pH at 93.7 min.
For assay [20] the target is unchanged. Briefly: SPR, huFcRn immobilised, pH 6.0, steady state affinity normalised to Ustekinumab; SPR steady state, pH 6.0, KD relative to Ustekinumab = 1.

In [1], IdeS-cleaved Fc-region of Ustekinumab came in with a FcRn column retention time of 85.2 min.

Consider IdeS-cleaved Fc-region of Briakinumab, for which the FcRn column retention time in assay [1] turned out to be 85.7 min.

Bevacizumab-wild-type (antibody) came in with a FcRn column retention time in assay [2] of 84.7 min.

B1: Ustekinumab (antibody, V domains shown)
VH: EVQLVQSGAEVKKPGESLKISCKGSGYSFTTYWLGWVRQMPGKGLDWIGIMSPVDSDIRYSPSFQGQVTMSVDKSITTAYLQWNSLKASDTAMYYCARRRPGQGYFDFWGQGTLVTVSS
VL: DIQMTQSPSSLSASVGDRVTITCRASQGISSWLAWYQQKPEKAPKSLIYAASSLQSGVPSRFSGSGSGTDFTLTISSLQPEDFATYYCQQYNIYPYTFGQGTKLEIK
notes: Fully human IgG1; also called CNTO 1275; Stelara
As for B1, the dissociation constant Kd in assay [3] came to 0.2 nM; in assay [4] it was 390 nM; in assay [5] it was 1000 nM; in [6], 3100 nM. In [3], this molecule came in with an off-rate constant (koff) of 0.00018 s⁻¹. The kon in assay [3] turned out to be 900000 M⁻¹ s⁻¹. The FcRn column retention time came to 84.3 min in assay [7], 83.6 min in assay [2], 80.4 min in assay [12] and 84.3 min in assay [13]. Further, the rel. KD (Ustekinumab = 1) in [8] and in assay [10] was 1 throughout. For the same molecule, the “window of IL-12 binding relative to Briakinumab (Briakinumab=100%)” value in [9] was not above 20%. The molecule also gave a FcRn column elution pH in assay [11] of 7.4 pH.

B2: mAb 3 (antibody, V domains shown)
VH: B1 VH
VL: QSVLTQPPSVSGAPGQRVTISCSGSRSNIGSNTVKWYQQLPGTAPKLLIYYNDQRPSGVPDRFSGSKSGTSASLAITGLQAEDEADYYCQSYDRYTHPALLFGTGTKVTVLG
notes: Heavy chains of Ustekinumab and light chains of Briakinumab (whole chains)
As for B2, the FcRn column retention time in assay [14] is 92.4 min. The binding result in assay [15] is “no binding (tested: 12 ng/mL)”. In assay [8], this molecule gave a rel. KD (Ustekinumab = 1) of 0.2.

B3: mAb 1 (antibody, V domains shown)
VH: B1 VH
VL: B1 VL
notes: Fv domain of Ustekinumab on the constant parts of Briakinumab (IgG1)
Take B3: in [3], the Kd turned out to be 0.24 nM, the koff turned out to be 0.00041 s⁻¹ and the kon came to 1.7e+06 M⁻¹ s⁻¹. The molecule also had a FcRn column retention time in assay [14] of 84.3 min. In addition, in assay [8], the rel. KD (Ustekinumab = 1) amounted to 1.

B4: mAb 2 (antibody, V domains shown)
VH: QVQLVESGGGVVQPGRSLRLSCAASGFTFSSYGMHWVRQAPGKGLEWVAFIRYDGSNKYYADSVKGRFTISRDNSKNTLYLQMNSLRAEDTAVYYCKTHGSHDNWGQGTMVTVSS
VL: B2 VL
notes: Fv domain of Briakinumab on the Ustekinumab constant domains (IgG1)
With B4, in assay [3], the Kd came to 0.25 nM, the dissociation rate constant (koff) worked out at 0.0003 s⁻¹ and the kon came to 1.2e+06 M⁻¹ s⁻¹. The molecule further had a FcRn column retention time in assay [14] of 93 min. The molecule further registered a rel. KD (Ustekinumab = 1) in [8] of 0.3. Also, in assay [9], the “window of IL-12 binding relative to Briakinumab (Briakinumab=100%)” value was not above 20%.

B5: mAb 8 (antibody, IgG1, V domains shown)
VH: B4 VH with R16A, R19A, K58A, K65A, R87A
VL: QSVLTQPPSVSGAPGQRVTISCSGSRSNIGSNTVKWYQQLPGTAPKLLIYYNDQRPSGVPDRFSGSKSGTSASLAITGLQAEDEADYYCQSYDRYTHPALLFGTGTKVTVL
notes: Briakinumab variant (IgG1) with five positively charged heavy chain residues mutated; also called Briakinumab with HC mutations R16A, R19A, K57A, K64A, R83A
In assay [3], B5 gave a dissociation constant Kd of 0.07 nM, a koff of 9.1e-05 s⁻¹ and a kon of 1.2e+06 M⁻¹ s⁻¹. The molecule also yielded a FcRn column retention time in assay [7] of 90.1 min. The molecule also came in with a FcRn column retention time in assay [14] of 90.1 min. In assay [16], this molecule registered a FcRn column elution pH of 7.7 pH. For the same molecule, the rel. KD (Ustekinumab = 1) in [8] was 0.4.

B6: Briakinumab (antibody, V domains shown)
VH: B4 VH
VL: B2 VL
notes: Fully human IgG1; also called ABT 874; J 695
B6: the Kd in [3] came to 0.07 nM; in [4] it was 90 nM; in assay [5] it was 100 nM; in assay [6] it was 360 nM; in assay [17], 600 nM; in assay [18], 4200 nM. The molecule also displayed a koff in assay [3] of 6e-05 s⁻¹. Besides, the kon in [3] was found to be 800000 M⁻¹ s⁻¹. The FcRn column retention time stood at 93.7 min in assay [7], 91.6 min in assay [2], 83.1 min in assay [12] and 93.7 min in [13]. For the same molecule, the rel. KD (Ustekinumab = 1) in [8] and in [20] was 0.2 each time. Moreover, in assay [9], the “window of IL-12 binding relative to Briakinumab (Briakinumab=100%)” value was not above 20%. The molecule also showed a FcRn column elution pH in assay [19] of 7.9 pH.

B7: mAb 9 (antibody, IgG1, V domains shown)
VH: B4 VH
VL: B5 VL with R26A, R55A, R94A
notes: Briakinumab variant (IgG1) with three positively charged residues of the light chain CDRs mutated to alanine; also called Briakinumab with LC mutations R27A, R55A, R94A
Take B7: in [3], the dissociation constant Kd was determined as 0.01 nM, the koff worked out at 0.00013 s⁻¹ and the kon is 8.8e+06 M⁻¹ s⁻¹. In [7], this molecule showed a FcRn column retention time of 86.2 min. The FcRn column retention time in assay [14] came to 86.2 min. The molecule further yielded a FcRn column elution pH in [16] of 7.5 pH. For the same molecule, the rel. KD (Ustekinumab = 1) in assay [8] was determined as 0.4.

(Values after patent US20170227547A1 (Hoffmann-La Roche, published 2017).)
